{
  "source": "patent US20230061378A1",
  "about": "(SUZHOU ALPHAMAB, published 2023)",
  "binders": {"B1": {"name": "1B7 (antibody, V domains shown)", "VH": "QVQLQQPGSELVRPGASVKLSCKASGYKFTSYWMHWVKQRPGQGLEWIGNIFPGSGSTNYDEKFNSKATLTVDTSSNTAYMQLSSLTSEDSAVYYCTRWLSGAYFDYWGQGTTLTVSS", "VL": "QIVLTQSPALMSASPGEKVTMTCSASSSVSFMYWYQQKPRSSPKPWIYLTSNLPSGVPARFSGSGSGTSYSLTISSMEAEDAATYYCQQWSSHPPTFGSGTKLEIK"}, "B2": {"name": "11E6 (antibody, V domains shown)", "VH": "EVKVVESGGGLVQPGGSLRLSCTTSGFTFTDYYVSWVRQPPGKALEWLGFIRNKVNGYTTEFSSSVKGRFTISRDNSQSILYLQMNTLRVEDSATYYCARVSYYGRGWYFDYWGQGTTLTVSS", "VL": "DIVMTQSTSSLSASLGDRVTISCRASQDIDNYLSWFQQKPDGTVKLLIYYTSRLHSGVPSRFSGSGSGTDYSLTISSLDQEDIATYFCQQGNTFPWTFGGGTKLEIK"}},
  "key": {"pertussis toxin (PT) [1]": {"molecular_target": "T1, pertussis toxin (PT) (Bordetella pertussis, UniProt P04977 35-269; P04978 28-226; P04979 29-227; P0A3R5 43-152; P04981 35-133)", "test": "BLI, antibody on AHC biosensor, PTpuri 6.25-100 nM in solution"}, "pertussis toxin (PT) [2]": {"molecular_target": "T1, pertussis toxin (PT)", "test": "cell-based or functional assay"}, "pertussis toxin (PT) [3]": {"molecular_target": "T1, pertussis toxin (PT)", "test": "BLI in-tandem binning on PT-biotin; competitor (Ab1, bound first): 1B7"}, "pertussis toxin (PT) [4]": {"molecular_target": "T1, pertussis toxin (PT)", "test": "BLI in-tandem binning on PT-biotin; competitor (Ab1, bound first): 11E6"}},
  "data": [
    {"binder": "B1", "values": [
      {"measurement": "Kd", "setting": "pertussis toxin (PT) [1]", "value": "< 1", "unit": "pM"},
      {"measurement": "koff", "setting": "pertussis toxin (PT) [1]", "value": "< 1e-07", "unit": "s⁻¹"},
      {"measurement": "kon", "setting": "pertussis toxin (PT) [1]", "value": 387000, "unit": "M⁻¹ s⁻¹"},
      {"measurement": "Minimum neutralizing concentration (CHO-K1 cells with PT toxin)", "setting": "pertussis toxin (PT) [2]", "value": 1.6, "unit": "µg/mL"},
      {"measurement": "Ab2 with Ab1/Ab2 without Ab1", "setting": "pertussis toxin (PT) [3]", "value": 1.1, "unit": "%"}
    ]},
    {"binder": "B2", "values": [
      {"measurement": "Kd", "setting": "pertussis toxin (PT) [1]", "value": "< 1", "unit": "pM"},
      {"measurement": "koff", "setting": "pertussis toxin (PT) [1]", "value": "< 1e-07", "unit": "s⁻¹"},
      {"measurement": "kon", "setting": "pertussis toxin (PT) [1]", "value": 311000, "unit": "M⁻¹ s⁻¹"},
      {"measurement": "Ab2 with Ab1/Ab2 without Ab1", "setting": "pertussis toxin (PT) [4]", "value": 0.2, "unit": "%"},
      {"measurement": "Minimum neutralizing concentration (CHO-K1 cells with PT toxin)", "setting": "pertussis toxin (PT) [2]", "value": 0.8, "unit": "µg/mL"}
    ]}
  ]
}
